B1: mouse GFRAL extracellular domain (ECD), residues 19-350 (domain or fragment)
chain: SQTNDCAHLIQKCLIDANGCEQSWRSMEDTCLTPGDSCKINNSLHCNLSIQALVEKNFQFKECLCMDDLHCTVNKLFGKKCTNKTDNMEKDNKDKWNLTTTPFYHGFKQMQSCLEVTEACVGDVVCNAQLALYLKACSANGNLCDVKHCQAAIRFFYQNMPFNTAQMLAFCDCAQSDIPCQQSKETLHSKPCALNIVPPPTCLSVIHTCRNDELCRTHYRTFQTECWPHITGKCHEDETCISMLGKQDLTCSGSESCRAAFLGTFGTVLQVPCACRGVTQAEEHVCMIFQHMLHSKSCFNYPTPNVKDISSYEKKNSKEITLTGFNSFFNGE
B2: Soluble mouse GFRAL extracellular domain (ECD) (receptor)
chain: B1 chain
B3: human GFRAL extracellular domain (ECD), residues 19-351 (domain or fragment)
chain: SQTNNCTYLREQCLRDANGCKHAWRVMEDACNDSDPGDPCKMRNSSYCNLSIQYLVESNFQFKECLCTDDFYCTVNKLLGKKCINKSDNVKEDKFKWNLTTRSHHGFKGMWSCLEVAEACVGDVVCNAQLASYLKACSANGNPCDLKQCQAAIRFFYQNIPFNIAQMLAFCDCAQSDIPCQQSKEALHSKTCAVNMVPPPTCLSVIRSCQNDELCRRHYRTFQSKCWQRVTRKCHEDENCISTLSKQDLTCSGSDDCKAAYIDILGTVLQVQCTCRTITQSEESLCKIFQHMLHRKSCFNYPTLSNVKGMALYTRKHANKITLTGFHSPFNGE
B4: Soluble human GFRAL extracellular domain (ECD) (receptor)
chain: B3 chain

What was measured:
[1] = target: Fc-GDF15 Mutant 2A (A3N/N5T/L36H) (human); test: SPR; Biacore T200, 37 °C; Fc-GDF15 captured on anti-human IgG on a CM4 chip; GFRAL injected as analyte, two-fold series 25-1.56 nM (human) or 100-6.25 nM (murine), 60 s association, 120 s dissociation; 1:1 Langmuir model; duplicate
[2] = target: Fc-GDF15 Mutant 3 (R4N/G6T) (human); test: as above
[3] = target: Fc-GDF15 Mutant 3B (R4N/G6T/L36R) (human); test: as above
[4] = target: T1, Fc-GDF15 WT (knob-Fc-(G4S)5-GDF15 paired with hole-Fc, wildtype GDF15) (human) (UniProt Q99988); test: as above
T1 sequence (Q99988 whole entry, looked up): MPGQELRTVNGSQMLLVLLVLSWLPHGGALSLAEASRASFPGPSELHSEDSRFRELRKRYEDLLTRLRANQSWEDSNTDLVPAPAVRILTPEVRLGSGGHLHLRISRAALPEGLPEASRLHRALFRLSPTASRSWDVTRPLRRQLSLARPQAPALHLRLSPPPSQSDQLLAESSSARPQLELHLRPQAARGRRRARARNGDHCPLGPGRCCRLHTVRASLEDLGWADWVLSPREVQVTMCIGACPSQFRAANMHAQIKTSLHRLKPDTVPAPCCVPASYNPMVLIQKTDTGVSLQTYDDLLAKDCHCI

[5] = target: Fc-GDF15 Mutant 3C (R4N/G6T/V98I) (human); test: as above
[6] = target: Fc-GDF15 Mutant 2C (A3N/N5T/V98I) (human); test: as above
[7] = target: Fc-GDF15 Mutant 3A (R4N/G6T/L36H) (human); test: as above
[8] = target: Fc-GDF15 Mutant 2 (A3N/N5T) (human); test: as above
[9] = target: Fc-GDF15 Mutant 3 (R4N/G6T) (human); test: SPR; Biacore T200, 37 °C; anti-human IgG amine-coupled on a CM4 chip captures Fc-GDF15; GFRAL ECD injected in two-fold dilutions (human 25 to 1.56 nM, murine 100 to 6.25 nM), 60 s association, 120 s dissociation; double referencing, 1:1 Langmuir model; duplicate
[10] = target: Fc-GDF15 Mutant 3C (R4N/G6T, V98I) (human); test: as above
[11] = target: T2, Fc-GDF15 WT (wildtype Fc-GDF15 control; knob-Fc-(G4S)5-GDF15 paired with hole-Fc) (human) (UniProt Q99988); test: as above
T2 sequence (Q99988 whole entry, looked up): T1 sequence (Q99988 whole entry, looked up)

[12] = target: Fc-GDF15 Mutant 3B (R4N/G6T, L36R) (human); test: as above
[13] = target: Fc-GDF15 Mutant 2A (A3N/N5T, L36H) (human); test: as above
[14] = target: Fc-GDF15 Mutant 2C (A3N/N5T/V98I) (human); test: as above
[15] = target: Fc-GDF15 Mutant 3A (R4N/G6T, L36H) (human); test: as above
[16] = target: Fc-GDF15 Mutant 2 (A3N/N5T) (human); test: as above

| Binder | koff [1] [s⁻¹] | kon [1] [M⁻¹ s⁻¹] | koff [2] [s⁻¹] | kon [2] [M⁻¹ s⁻¹] | koff [3] [s⁻¹] | kon [3] [M⁻¹ s⁻¹] | koff [4] [s⁻¹] | kon [4] [M⁻¹ s⁻¹] | koff [5] [s⁻¹] | kon [5] [M⁻¹ s⁻¹] | koff [6] [s⁻¹] | kon [6] [M⁻¹ s⁻¹] | koff [7] [s⁻¹] | kon [7] [M⁻¹ s⁻¹] | koff [8] [s⁻¹] | kon [8] [M⁻¹ s⁻¹] | Kd [9] [nM] | Kd [10] [nM] | Kd [11] [nM] | Kd [12] [nM] | other results |
| --- | --- | --- | --- | --- | --- | --- | --- | --- | --- | --- | --- | --- | --- | --- | --- | --- | --- | --- | --- | --- | --- |
| B1 | 0.16 | 865000 | 0.474 | 1.59e+06 | 0.105 | 1.26e+06 | 0.364 | 1.61e+06 | 0.188 | 1.69e+06 | 0.179 | 1.88e+06 | 0.2 | 1.13e+06 | 0.372 | 1.52e+06 | – | – | – | – | – |
| B2 | – | – | – | – | – | – | – | – | – | – | – | – | – | – | – | – | 300 | 124 | 230 | 82.8 | Kd [13]: 186 nM; Kd [14]: 95.8 nM; Kd [15]: 178 nM; Kd [16]: 245 nM |
| B3 | 0.039 | 6.47e+06 | 0.113 | 1e+07 | 0.0283 | 7.72e+06 | 0.12 | 1.07e+07 | 0.0571 | 1.05e+07 | 0.0574 | 1.03e+07 | 0.0402 | 6.61e+06 | 0.1 | 1e+07 | – | – | – | – | – |
| B4 | – | – | – | – | – | – | – | – | – | – | – | – | – | – | – | – | 11.2 | 5.44 | 11 | 3.68 | Kd [13]: 6.03 nM; Kd [14]: 5.52 nM; Kd [15]: 6.09 nM; Kd [16]: 10 nM |
